Results published in PMC3322178 (Biochemistry, 2009).
Where a chain is given by its changes, count along the chain named. Names and notes keep the numbering of the source. Like-named read-outs stand apart in the source and are kept apart here. Each block holds one molecule with its values, some of them ahead of it.

Assays:
ASF/SF2 (Homo sapiens) = ASF/SF2 (Homo sapiens) (UniProt Q07955); details: cited from earlier work
[1] = target: T1, His-SRPK1(FL), full length SR protein kinase 1 (UniProt Q96SB4 1-655); assay: pull-down
[2] = target: T1, His-SRPK1(FL), full length SR protein …; assay: pull-down; remark: listed apart in the source

Molecule: SRPK1 (from UniProt Q96SB4)
Kd (ASF/SF2 (Homo sapiens)): 50 nM

B1: GST-ASF(RRM2)-Q135A (domain or fragment, human, UniProt Q07955 105-196, looked up)
chain: GGAPRGRYGPPSRRSENRVVVSGLPPSGSWADLKDHMREAGDVCYADVYRDGTGVVEFVRKEDMTYAVRKLDNTKFRSHEGETAYIRVKVDG
binding result [1]: binds

B2: GST-ASF(RS), ASF/SF2 RS domain residues 183-248 (domain or fragment, human, UniProt Q07955 183-248, looked up)
chain: HEGETAYIRVKVDGPRSPSYGRSRSRSRSRSRSRSRSNSRSRSYSPRRSRGSPRYSPRHSRSRSRT
binding result [2]: binds

More lines, now with the values ahead:

binding result [1]: binds
B3: GST-ASFΔβ4ΔRS (residues 1-179) (domain or fragment, human, UniProt Q07955 1-179, looked up)
chain: MSGGGVIRGPAGNNDCRIYVGNLPPDIRTKDIEDVFYKYGAIRDIDLKNRRGGPPFAFVEFEDPRDAEDAVYGRDGYDYDGYRLRVEFPRSGRGTGRGGGGGGGGGAPRGRYGPPSRRSENRVVVSGLPPSGSWQDLKDHMREAGDVCYADVYRDGTGVVEFVRKEDMTYAVRKLDNTK

binding result [2]: binds
B4: GST-ASF(RRM2)-R154A (domain or fragment, human, UniProt Q07955 105-196, looked up)
chain: B1 chain with A31Q, R50A

binding result [1]: binds
B5: GST-ASF(RRM2)-W134A (domain or fragment, human, UniProt Q07955 105-196, looked up)
chain: B1 chain with W30A, A31Q
